Where a chain is given by its changes, count along the chain named.
B1: sd1.032 (antibody, V domains shown)
VH: QVQLVQSGAEVKRPGSSVKVSCKASGGTFNNYAMTWVRQAPGQGLEWMGGIIPMLGTENYAQKFQGRVTITADESTSTAHMELSSLRSEDTAVYYCARLTVPTPHSYYSYGLDAWGQGTTVTVSS
VL: QSALTQPASVSGSPGQSITISCTGTSSDVGSYNLVSWFQQHAGRAPKLMIYEGNKRPSGISNRFSGSKSGNTASLTISGLQAEDEADYYCCSYAGSSTHVFGTGTKVTVL
B2: sd1.102 (antibody, V domains shown)
VH: QVQLVQSGAEVKKPGSSVKVSCKASGGTFSSYAISWVRQAPGQGLEWMGGIIPLYGTANYAQKFQGRVTITADESTSTTYMELSSLTSEDTAVYYCVRFRGGDYYYYYGMDVWGQGTTVTVSS
VL: EIVMTQSPATLSVSPGESATLSCRASQTVSTNLAWYQQKPGQAPRLLIFGASTRATGIPARFSGSGSGTEFTLSISSLQSEDFAVYYCHQYNSRRTFGQGTKLEIK
B3: sd1.047 (antibody, V domains shown)
VH: EVQLVESGGGVVEPGRSLRLSCVASGFPFKNYGMHWVRQAPGKGLEWMAVISYDGRLEYYAESVQGRFTISRDTSRKTLYLQMDSLRVDDTAVYYCAKDGVMGFCSGDDCTPPFDSWGQGTLVTVSS
VL: QSALTQPASVSGSPGQSITISCTGTSSDVGGYNYVSWFQQYPGKAPQLLIYEVSNRPSGVSNRFSGSKSGNTASLTISGLQAEDEADYYCSSYAGSPYVFGIGTRVTVL
B4: sd1.039 (antibody, V domains shown)
VH: EVQLVQSGAEVKKPGESLKISCKASGYSFPTYWIGWVRQMPGKGLEWMGIIYPGDSDTRYSPSFQGQVTISADKSISTAYLQWSSLKASDTAIYYCARYGDSHIDSWGQGTLVTVSS
VL: QSVLTQPRSASASLGASVTLNCTLSSGYSKYKVEWYQQRPGKGPRFLMRVGAGGIVGSKGDGIPDRFSVLGSGLNRYLIIKNIQQEDESDYHCGADHGSGSNFAYVVFGGGTKLTVL
B5: rbd.031 (antibody, V domains shown)
VH: EVQLVESGGGVVQPGRSLRLSCAASGFTFKTYGMHWVRQAPGKGLEWVAVISYEGSNEYYAESVKGRFTISRDNSKNTLYLHMNSLRAEDTAVYYCAKGEYYYHSSTYYYLDYWGRGTLVTVSS
VL: DIQMTQSPSTLSASVGDRVTITCRASQSISSWLAWYQQKPGKAPKVLIYDASSLQSGVPLRFSGSGSGTEFTLTISSLQPDDFATYYCQQYDTYWTFGQGTKVEIK
B6: sd1.107 (antibody, V domains shown)
VH: QVQLVQSGAEVKKPGSSVKVSCKASGGTFSSYAISWVRQAPGQGLEWMGGIIPMFGTTNYAQKFQGRVTITADESTSTAYMELSSLRSEDTAVYYCARVTHLNWRRGYEVGRISGAFDIWGQGTMVTVSS
VL: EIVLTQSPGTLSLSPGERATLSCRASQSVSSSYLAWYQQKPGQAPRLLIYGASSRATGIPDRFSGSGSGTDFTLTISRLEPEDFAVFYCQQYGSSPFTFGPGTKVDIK
B7: sd1.033 (antibody, V domains shown)
VH: QVQLVQSGAEVKKPGSSVKVSCKASGGVYSTYAVSWVRQAPGQGLEWIGGIIPMFGTANYAQNFQGRVTITADESTRTAYMEVSSLRSEDTAVYYCASPSAPTYYYDSSRYYSFDYWGQGTLVTVSS
VL: EIVLTQSPGTLSLSPGERATLSCRASQSVSSNFLAWFQQKPGQPPRLLIYGASSRATGIPDRFSGSGSGTDFTLTISRLVPEDFAVYFCQQYGSSRYSFGQGTKLEIK
B8: sd1.103 (antibody, V domains shown)
VH: QVQLVQSGAEVKKPGSSMKVSCKASGGTLNNYAIIWVRQAPGQGLEWMGGIIPMFGAANYAQNFQGRVTITADESTRTAYLELSSLRSEDTAMYYCARVVIPYLGAHYYHYGVDVWGQGTTVTVSS
VL: B7 VL with S30T, F33Y, F37Y, P44A, T57A, S64N, V80E, F88Y, S98T
B9: sd1.034 (antibody, V domains shown)
VH: EVQLVESGGGVVQPGRSLRLSCAASGFSFSNYGMHWVRQAPGKGLEWVAVISYDGSHKSFADSVKGRFTISRDNSKNTLNLQMNSLRREDTAVYYCATDQGGSLGYWGQGTLVTVSS
VL: QSALTQPASVSGSPGQSITISCTGTSGDVGGYNYVSWYQHHPGKAPKLMIYDVSNRPSGVSNRFSGSKSGNTASLTISGLQAEDEADYYCSSYTSTSTSWVFGGGTKLTVL
B10: sd1.108 (antibody, V domains shown)
VH: QVQLVQSGAEVKKPGASVKVSCKASGYTFTSYYIHWVRQTPGQGLEWMGIINPRGGSTSYPQKFQGRVSMTRDTSTSTVFMELSSLRSDDTAVYYCAREHREDTAMDNQPSDSWGQGTLVTVSS
VL: DIVMTQSPDSLSVSLGERATINCKSSRSVFYSSNNKSYLAWYQQKPGQPPKLLIYWASTRESGVRDRFSGSGSGTDFTLTISSLQAEDVAVYYCQQYYNTPYTFGQGTKLEIK
B11: sd1.100 (antibody, V domains shown)
VH: QVQLQESGPGLVKPSQTLSLTCSVSGDSITSGNYYWSWIRQHPGKGLEWIGNIFHTGNTYYNPSLKSRVTISIDTSKNQFSLKLSSVTAADTALYYCARDHKRLEGDWFDPWGQGSLVTVSS
VL: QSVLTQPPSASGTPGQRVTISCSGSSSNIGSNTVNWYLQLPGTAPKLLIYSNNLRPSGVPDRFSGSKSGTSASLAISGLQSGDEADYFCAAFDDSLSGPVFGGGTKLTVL
B12: sd1.150 (antibody, V domains shown)
V domain 1: EVQLVESGGGVVQPGRSLRLSCAASGFTFSSHGMHWVRQAPGRGLEWVAVISFDGRNKFYVDSVKGRFTISRDNSKNTLYLHMNSLRAADTAVYYCAKDHDPDGSGSYFSNWFDAWGQGTLVTVSS
V domain 2: SYELTQPPSVSVSPGQTASITCSGDKLGDKYAYWYRQKPGQSPVVVIYQDNKRPSGIPERFSGSNSGNTATLTISGTQAMDEADYYCQAWDTYSGVFGTGTQVTVL
B13: sd1.151 (antibody, V domains shown)
VH: EVQLVESGGGLVKPGGSLRLSCAVSGFTFSNAWMTWVRQAPGKGLEWVGRIKTKPEGGTTDYATPVKGRFTISRDDSIDTLYLQMNSLKTEDTAVYYCSTFSSPDHWGQGTLVTVSS
VL: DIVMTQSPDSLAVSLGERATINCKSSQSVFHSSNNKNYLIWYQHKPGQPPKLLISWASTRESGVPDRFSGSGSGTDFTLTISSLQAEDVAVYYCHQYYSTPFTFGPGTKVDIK
B14: sd1.127 (antibody, V domains shown)
VH: EVQLVESGGALVKPGGSLTLSCVASGFTFSHAWMTWVRQAPGKGLEWVGRIKTKTEGGTIDYAAPLRGRFTISRDDSKNTLYLRMNSLKIEDTAKYYCTTHSSPDYWGQGTLVTVSS
VL: DIQMTQSPSSLSASIGDRVTITCRASQGIGNSLLWYQQKRGKVPKLLIYAASTLQSGVPSRFSGSGSGTDFTLTISSLQPEDVATYYCQRYNSAPLTFGGGTKVEIK
B15: sd1.129 (antibody, V domains shown)
VH: QVQLVQSGAEVKRPGSSVKVSCKASGGAFSNYAISWVRQAPGQGLEWMGGIIPIFGTTNYAQRFQGRVTISADESTGTAYMELSSLRFADTAIYYCARADAYSGSYYPSANWFDPWGQGTLVTVSS
VL: EIVLTQSPATLSLSPGERATLSCRASQSVSNYLAWYQQKPGQAPRLLIYDASNRATGIPARFSGSGSGTDFTLTISSLEPEDFAVYYCQQRQNWPPGWTFGQGTKVEIK
B16: sd1.132 (antibody, V domains shown)
VH: QVQLVQSGTEVKKPGSSVKVSCKASGGTFSSYAISWVRQAPGQGLEWMGGIIPMFGAPNYAQKVQGRVTITADESTSTAYMELSSLRSEDTAVYYCARMEYSNSPGRGGYYFYSNGMDVWGQGTTVTVSS
VL: EIVLTQSPATLSLSPGERATLSCRASQSVSTYLAWLQQKPGQAPRLLMYDASNRASGIPARFSGSGSGTEFTLTISSLEPEDFAVYYCQQRTYWPLTFGGGTKVEIK

The binders below were run against SD1-RBD of SARS-CoV-2 S (ancestral), aa 319-591 (SARS-CoV-2, ancestral (Wuhan-Hu-1; …, UniProt P0DTC2).

Binder	binding result
B1	binds
B2	binds
B3	binds
B4	binds
B5	binds
B6	binds
B7	binds
B8	binds
B9	binds
B10	binds
B11	binds
B12	binds
B13	binds
B14	binds
B15	binds
B16	binds
